Assay results taken from article PMC5548930.

What was measured:
[1] = target: Endothelin-1 (Homo sapiens) (UniProt P05305); settings: cited from earlier work
Gαi3 protein, P08754 = target: T1, Gαi3 protein, P08754; test: ELISA (immobilized Gαi3, bound P9-ETA detected with anti-P9 antibody); settings: chain shown with the change; 1 μM mutant; parent: est. 100; read off a plot
T1 chain: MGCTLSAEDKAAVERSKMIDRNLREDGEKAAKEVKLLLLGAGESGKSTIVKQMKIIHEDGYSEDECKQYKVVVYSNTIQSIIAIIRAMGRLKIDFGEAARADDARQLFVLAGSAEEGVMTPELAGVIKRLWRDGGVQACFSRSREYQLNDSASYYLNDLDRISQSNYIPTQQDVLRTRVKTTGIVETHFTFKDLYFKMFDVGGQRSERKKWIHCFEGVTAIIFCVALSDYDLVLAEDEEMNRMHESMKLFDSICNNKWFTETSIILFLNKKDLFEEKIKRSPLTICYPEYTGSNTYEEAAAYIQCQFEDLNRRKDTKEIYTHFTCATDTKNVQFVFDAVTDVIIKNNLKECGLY

[2] = target: T2, C-terminally biotinylated endothelin-1; test: ELISA (immobilized purified P9-ETA proteins, bET-1 detected with SA-HRP); settings: chain shown with the change; 5 μM bET-1; proteins reconstituted with APG; parent: est. 100; read off a plot
T2 chain: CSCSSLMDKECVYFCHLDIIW

| Molecule | Kd [1] [nM] | percent of parent (Gαi3 protein, P08754) | percent of parent [2] |
| --- | --- | --- | --- |
| Endothelin receptor type A (P9-ETA fusion) (from UniProt P25101) | 60 | – | – |
| wild type P9-ETA (human endothelin receptor type A with N-terminal P9 fusion), P25101 G261W (protein) DNPERYSTNLSNHVDDFTTFRGTELSFLVTTHQPTNLVLPSNGSMHNYCPQQTKITSAFKYINTVISCTIFIVGMVGNATLLRIIYQNKCMRNGPNALIASLALGDLIYVVIDLPINVFKLLAGRWPFDHNDFGVFLCKLFPFLQKSSVGITVLNLCALSVDRYRAVASWSRVQGIGIPLVTAIEIVSIWILSFILAIPEAIGFVMVPFEYRGEQHKTCMLNATSKFMEFYQDVKDWWLFWFYFCMPLVCTAIFYTLMTCEMLNRRNGSLRIALSEHLKQRREVAKTVFCLVVIFALCWFPLHLSRILKKTVYNEMDKNRCELLSFLLLMDYIGINLATMNSCINPIALYFVSKKFKNCFQSCLCCCCYQSKSLMTSVPMNGTSIQWKNHDQNNHNTDRSSHKDSMN | – | 110 % of w.t | 31 % of w.t |
| wild type P9-ETA (human endothelin receptor type A with N-terminal P9 fusion), P25101 F346C (protein) DNPERYSTNLSNHVDDFTTFRGTELSFLVTTHQPTNLVLPSNGSMHNYCPQQTKITSAFKYINTVISCTIFIVGMVGNATLLRIIYQNKCMRNGPNALIASLALGDLIYVVIDLPINVFKLLAGRWPFDHNDFGVFLCKLFPFLQKSSVGITVLNLCALSVDRYRAVASWSRVQGIGIPLVTAIEIVSIWILSFILAIPEAIGFVMVPFEYRGEQHKTCMLNATSKFMEFYQDVKDWWLFGFYFCMPLVCTAIFYTLMTCEMLNRRNGSLRIALSEHLKQRREVAKTVFCLVVIFALCWFPLHLSRILKKTVYNEMDKNRCELLSCLLLMDYIGINLATMNSCINPIALYFVSKKFKNCFQSCLCCCCYQSKSLMTSVPMNGTSIQWKNHDQNNHNTDRSSHKDSMN | – | 140 % of w.t | 26 % of w.t |
| wild type P9-ETA (human endothelin receptor type A with N-terminal P9 fusion), P25101 K140I (protein) DNPERYSTNLSNHVDDFTTFRGTELSFLVTTHQPTNLVLPSNGSMHNYCPQQTKITSAFKYINTVISCTIFIVGMVGNATLLRIIYQNKCMRNGPNALIASLALGDLIYVVIDLPINVFILLAGRWPFDHNDFGVFLCKLFPFLQKSSVGITVLNLCALSVDRYRAVASWSRVQGIGIPLVTAIEIVSIWILSFILAIPEAIGFVMVPFEYRGEQHKTCMLNATSKFMEFYQDVKDWWLFGFYFCMPLVCTAIFYTLMTCEMLNRRNGSLRIALSEHLKQRREVAKTVFCLVVIFALCWFPLHLSRILKKTVYNEMDKNRCELLSFLLLMDYIGINLATMNSCINPIALYFVSKKFKNCFQSCLCCCCYQSKSLMTSVPMNGTSIQWKNHDQNNHNTDRSSHKDSMN | – | 110 % of w.t | 18 % of w.t |
| wild type P9-ETA (human endothelin receptor type A with N-terminal P9 fusion), P25101 S213L (protein) DNPERYSTNLSNHVDDFTTFRGTELSFLVTTHQPTNLVLPSNGSMHNYCPQQTKITSAFKYINTVISCTIFIVGMVGNATLLRIIYQNKCMRNGPNALIASLALGDLIYVVIDLPINVFKLLAGRWPFDHNDFGVFLCKLFPFLQKSSVGITVLNLCALSVDRYRAVASWSRVQGIGIPLVTAIEIVSIWILLFILAIPEAIGFVMVPFEYRGEQHKTCMLNATSKFMEFYQDVKDWWLFGFYFCMPLVCTAIFYTLMTCEMLNRRNGSLRIALSEHLKQRREVAKTVFCLVVIFALCWFPLHLSRILKKTVYNEMDKNRCELLSFLLLMDYIGINLATMNSCINPIALYFVSKKFKNCFQSCLCCCCYQSKSLMTSVPMNGTSIQWKNHDQNNHNTDRSSHKDSMN | – | 160 % of w.t | 130 % of w.t |
| wild type P9-ETA (human endothelin receptor type A with N-terminal P9 fusion), P25101 L59P (protein) DNPERYSTNLSNHVDDFTTFRGTELSFLVTTHQPTNLVPPSNGSMHNYCPQQTKITSAFKYINTVISCTIFIVGMVGNATLLRIIYQNKCMRNGPNALIASLALGDLIYVVIDLPINVFKLLAGRWPFDHNDFGVFLCKLFPFLQKSSVGITVLNLCALSVDRYRAVASWSRVQGIGIPLVTAIEIVSIWILSFILAIPEAIGFVMVPFEYRGEQHKTCMLNATSKFMEFYQDVKDWWLFGFYFCMPLVCTAIFYTLMTCEMLNRRNGSLRIALSEHLKQRREVAKTVFCLVVIFALCWFPLHLSRILKKTVYNEMDKNRCELLSFLLLMDYIGINLATMNSCINPIALYFVSKKFKNCFQSCLCCCCYQSKSLMTSVPMNGTSIQWKNHDQNNHNTDRSSHKDSMN | – | 93 % of w.t | 66 % of w.t |
| wild type P9-ETA (human endothelin receptor type A with N-terminal P9 fusion), P25101 F161L (protein) DNPERYSTNLSNHVDDFTTFRGTELSFLVTTHQPTNLVLPSNGSMHNYCPQQTKITSAFKYINTVISCTIFIVGMVGNATLLRIIYQNKCMRNGPNALIASLALGDLIYVVIDLPINVFKLLAGRWPFDHNDFGVFLCKLLPFLQKSSVGITVLNLCALSVDRYRAVASWSRVQGIGIPLVTAIEIVSIWILSFILAIPEAIGFVMVPFEYRGEQHKTCMLNATSKFMEFYQDVKDWWLFGFYFCMPLVCTAIFYTLMTCEMLNRRNGSLRIALSEHLKQRREVAKTVFCLVVIFALCWFPLHLSRILKKTVYNEMDKNRCELLSFLLLMDYIGINLATMNSCINPIALYFVSKKFKNCFQSCLCCCCYQSKSLMTSVPMNGTSIQWKNHDQNNHNTDRSSHKDSMN | – | 120 % of w.t | 50 % of w.t |
| wild type P9-ETA (human endothelin receptor type A with N-terminal P9 fusion), P25101 C69S (protein) DNPERYSTNLSNHVDDFTTFRGTELSFLVTTHQPTNLVLPSNGSMHNYSPQQTKITSAFKYINTVISCTIFIVGMVGNATLLRIIYQNKCMRNGPNALIASLALGDLIYVVIDLPINVFKLLAGRWPFDHNDFGVFLCKLFPFLQKSSVGITVLNLCALSVDRYRAVASWSRVQGIGIPLVTAIEIVSIWILSFILAIPEAIGFVMVPFEYRGEQHKTCMLNATSKFMEFYQDVKDWWLFGFYFCMPLVCTAIFYTLMTCEMLNRRNGSLRIALSEHLKQRREVAKTVFCLVVIFALCWFPLHLSRILKKTVYNEMDKNRCELLSFLLLMDYIGINLATMNSCINPIALYFVSKKFKNCFQSCLCCCCYQSKSLMTSVPMNGTSIQWKNHDQNNHNTDRSSHKDSMN | – | 97 % of w.t | 59 % of w.t |
| wild type P9-ETA (human endothelin receptor type A with N-terminal P9 fusion), P25101 N29D (protein) DNPERYSTDLSNHVDDFTTFRGTELSFLVTTHQPTNLVLPSNGSMHNYCPQQTKITSAFKYINTVISCTIFIVGMVGNATLLRIIYQNKCMRNGPNALIASLALGDLIYVVIDLPINVFKLLAGRWPFDHNDFGVFLCKLFPFLQKSSVGITVLNLCALSVDRYRAVASWSRVQGIGIPLVTAIEIVSIWILSFILAIPEAIGFVMVPFEYRGEQHKTCMLNATSKFMEFYQDVKDWWLFGFYFCMPLVCTAIFYTLMTCEMLNRRNGSLRIALSEHLKQRREVAKTVFCLVVIFALCWFPLHLSRILKKTVYNEMDKNRCELLSFLLLMDYIGINLATMNSCINPIALYFVSKKFKNCFQSCLCCCCYQSKSLMTSVPMNGTSIQWKNHDQNNHNTDRSSHKDSMN | – | 130 % of w.t | 42 % of w.t |
| wild type P9-ETA (human endothelin receptor type A with N-terminal P9 fusion), P25101 D35N (protein) DNPERYSTNLSNHVNDFTTFRGTELSFLVTTHQPTNLVLPSNGSMHNYCPQQTKITSAFKYINTVISCTIFIVGMVGNATLLRIIYQNKCMRNGPNALIASLALGDLIYVVIDLPINVFKLLAGRWPFDHNDFGVFLCKLFPFLQKSSVGITVLNLCALSVDRYRAVASWSRVQGIGIPLVTAIEIVSIWILSFILAIPEAIGFVMVPFEYRGEQHKTCMLNATSKFMEFYQDVKDWWLFGFYFCMPLVCTAIFYTLMTCEMLNRRNGSLRIALSEHLKQRREVAKTVFCLVVIFALCWFPLHLSRILKKTVYNEMDKNRCELLSFLLLMDYIGINLATMNSCINPIALYFVSKKFKNCFQSCLCCCCYQSKSLMTSVPMNGTSIQWKNHDQNNHNTDRSSHKDSMN | – | 92 % of w.t | 29 % of w.t |
| wild type P9-ETA (human endothelin receptor type A with N-terminal P9 fusion), P25101 M65K (protein) DNPERYSTNLSNHVDDFTTFRGTELSFLVTTHQPTNLVLPSNGSKHNYCPQQTKITSAFKYINTVISCTIFIVGMVGNATLLRIIYQNKCMRNGPNALIASLALGDLIYVVIDLPINVFKLLAGRWPFDHNDFGVFLCKLFPFLQKSSVGITVLNLCALSVDRYRAVASWSRVQGIGIPLVTAIEIVSIWILSFILAIPEAIGFVMVPFEYRGEQHKTCMLNATSKFMEFYQDVKDWWLFGFYFCMPLVCTAIFYTLMTCEMLNRRNGSLRIALSEHLKQRREVAKTVFCLVVIFALCWFPLHLSRILKKTVYNEMDKNRCELLSFLLLMDYIGINLATMNSCINPIALYFVSKKFKNCFQSCLCCCCYQSKSLMTSVPMNGTSIQWKNHDQNNHNTDRSSHKDSMN | – | 120 % of w.t | 3 % of w.t |
